Target: thrombin (biotinylated, immobilized on streptavidin microparticles) (UniProt P00734;P00734 328-363;364-622)
Experiment: microparticle flow cytometry; Thrombin-microparticles incubated with 0.5-200 nM FAM-aptamer, washed with DPBS, flow cytometry; binding buffer, pH and temperature not stated

B1: hybrid bispecific aptamer without toehold (HBA; 15-mer-Sticky + 29-mer-Sticky) (structured_DNA)
DNA 1: GGTTGGTGTGGTTGGTTTTTGACCCTGCGTACC
DNA 2: AGTCCGTGGTAGGGCAGGTTGGGGTGACTTTTTTGGTACGCAGGTC
Kd: 4.8 nM

B2: toehold hybrid bispecific aptamer (THBA; 15-mer-Sticky + 29-mer-Sticky-TH) (structured_DNA)
DNA 1: GGTTGGTGTGGTTGGTTTTTGACCCTGCGTACC
DNA 2: AGTCCGTGGTAGGGCAGGTTGGGGTGACTTTTTTGGTACGCAGGTCCGTTA
Kd: ~5.7 nM
